Test results from IntAct's records for PubMed 16263329.

B1: Anti-sigma-F factor antagonist RsfB (Mycobacterium tuberculosis (strain ATCC 25618 / P9WGE1 (parent)
chain: MSAPDSITVTVADHNGVAVLSIGGEIDLITAAALEEAIGEVVADNPTALVIDLSAVEFLGSVGLKILAATSEKIGQSVKFGVVARGSVTRRPIHLMGLDKTFRLFSTLHDALTGVRGGRIDR
partner: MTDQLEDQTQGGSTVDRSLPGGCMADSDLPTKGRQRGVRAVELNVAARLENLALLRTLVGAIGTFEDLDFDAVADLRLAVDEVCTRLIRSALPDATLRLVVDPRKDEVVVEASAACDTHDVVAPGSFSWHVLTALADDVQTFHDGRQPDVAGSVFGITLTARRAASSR

Variants of: B1
Settings: with rsbw_myctu rsbW

Variant	effect of a mutation on the interaction
S61A	decreasing interaction
